From publication PMC11686378

Biological target: Replication Protein A (RPA) heterotrimer from Pyrococcus abyssi, wild type (Pyrococcus abyssi)
Test: BLI; RPA or RPA^ΔWH nucleoprotein filaments on a 3'-TEG-biotin 50-nt ssDNA held on streptavidin sensors; PriSL (1.56-100 nM) or PolD (15.62-1000 nM) in solution; steady-state analysis; 25 °C, buffer E with 0.2 mg/ml BSA

- Kd: 24 nM
B1: DNA primase PriSL (PriS-PriL heterodimer) from P. abyssi, in solution (complex)
chain 1: MLLREVTKEERKEFYSNEWNAKQIPDFILQNLDKREFGFDHTGEGPSDRKNSYTDVRDLEDYIKATAPYAVYSSVAFYEKPQEMEGWLGAELVFDIDAKDLPLRRCNHEPGKVCPICLNDAKEIARDTLIVLKEELGFEDVHVVYSGRGYHIRVMDGWALSLDSKSRERILSFISASEIEDHSEFRKMLLERRGWFVLNHGYPRVFRLRFGYFILRVKVEHLINFGIRKNIAKRILDNKETIYEEFVRKGILAAFPDGVGIESLAKLFALSTRFSKAYFDGRVTVDLKRILRLPSTLHSKVGLIAKYIGNNERDVMRFNPFKHAVPKFRRKEVKEEYKRFLEENF
chain 2: MLDPFSEKAKELLKEFGSINDFLNSIPRIVDVEEVIERVKIASDRKLLEGFVDIEDIKDLAQFYALLGALSYSPYGLELELVKKANILLYSERIRREKEIRPEEISLRINKAIEFPIDDLKKIERVFGKLPEYTIHLAEFLDLIPGERLSEYYIYNGNVYLRKEDLIKVWMKAFERNIEKSVNMLYEIRDELPGFFREVLGGIKEVAEQEFGKSGEVKAGTLRPDLFPPCVKNALKGVPQGLRNYAITVLLTSFLSYARICPNPPRRNVRVKDCIDDIRIITDEILPLIIEAANRCSPPLFEDQPNEIKNIWYHLGFGYTANPKLEDSGNSTWYFPPNCDKIRANAPQLCTPDKHCKYVRNPLTYYLRRLYLEGRKNASKGGNERGEKRVLQQ
